Experimental data taken from patent publication US20230331827A1 (MAXION THERAPEUTICS, published 2023).

Target: human cMET (human, UniProt P08581 25-932)
Experiment: phage TRF on cMET

human cMET, sequence (P08581 25-932 limits assumed): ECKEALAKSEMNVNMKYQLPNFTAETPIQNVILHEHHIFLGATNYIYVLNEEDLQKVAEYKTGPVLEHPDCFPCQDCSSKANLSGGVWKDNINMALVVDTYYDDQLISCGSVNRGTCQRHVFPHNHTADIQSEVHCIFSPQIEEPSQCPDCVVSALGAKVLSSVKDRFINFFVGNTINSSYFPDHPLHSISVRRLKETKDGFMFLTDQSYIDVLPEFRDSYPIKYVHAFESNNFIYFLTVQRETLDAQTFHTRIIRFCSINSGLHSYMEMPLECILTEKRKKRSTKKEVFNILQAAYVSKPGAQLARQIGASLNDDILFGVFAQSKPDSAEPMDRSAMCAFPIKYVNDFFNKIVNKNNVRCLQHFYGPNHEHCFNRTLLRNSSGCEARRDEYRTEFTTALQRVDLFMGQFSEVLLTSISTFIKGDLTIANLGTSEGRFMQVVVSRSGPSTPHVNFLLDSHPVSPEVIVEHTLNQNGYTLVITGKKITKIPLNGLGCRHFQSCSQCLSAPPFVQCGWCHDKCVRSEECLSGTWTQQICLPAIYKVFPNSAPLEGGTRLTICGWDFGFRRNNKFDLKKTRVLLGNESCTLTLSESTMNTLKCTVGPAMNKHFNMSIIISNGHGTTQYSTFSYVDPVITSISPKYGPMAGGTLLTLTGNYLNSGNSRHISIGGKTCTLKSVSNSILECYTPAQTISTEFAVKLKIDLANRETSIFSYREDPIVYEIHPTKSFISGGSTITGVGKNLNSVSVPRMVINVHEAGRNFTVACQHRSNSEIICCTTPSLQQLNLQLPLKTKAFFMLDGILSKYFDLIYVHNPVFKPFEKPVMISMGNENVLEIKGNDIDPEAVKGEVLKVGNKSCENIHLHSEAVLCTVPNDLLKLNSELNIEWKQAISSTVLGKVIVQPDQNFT

| Binder | TRF signal |
| --- | --- |
| KB_A12_cMET_E11 (scFv, V domains shown) VH: EVQLVESGGGLVRPGGSLRLSCAASGFTFSSYAMSWVRQAPGKGLEWVSAISGSGGSTYYADSVKGRFTISRDNTKNSLYLQMTSLRADDTAFYYCVKDFGPGYGTGWFDYWGPGTLVTVSS VL: AVNWYQQLPGKAPKLLIYAAGRCAKKSGTGRCKQDSDCLAGCVCGPNGFCGANSGVSDRFSAAKSGTSASLAINGLRSEDEADYYCAAWDDSLNGYVFGTGTKLTVLG | 158000 |
| KB_A12_cMET_F10 (scFv, V domains shown) VH: EVQLVESGGGLVRPGGSLRLSCAASGFTFSSYAMSWVRQAPGKGLEWVSAISGSGGSTYYADSVKGRFTISRDNTKNSLYLQMTSLRADDTAFYYCVKDFGPGYGTGWFDYWGPGTLVTVSS VL: AVNWYQQLPGKAPKLLIYAAGRCRSLMSGTGRCKQDSDCLAGCVCGPNGFCGANSGVSDRFSAAKSGTSASLAINGLRSEDEADYYCAAWDDSLNGYVFGTGTKLTVLG | 51300 |
| KB_A12_cMET_G08 (scFv, V domains shown) VH: EVQLVESGGGLVRPGGSLRLSCAASGFTFSSYAMSWVRQAPGKGLEWVSAISGSGGSTYYADSVKGRFTISRDNTKNSLYLQMTSLRADDTAFYYCVKDFGPGYGTGWFDYWGPGTLVTVSS VL: AVNWYQQLPGKAPKLLIYAAGRCARLSGSGRCKQDSDCLAGCVCGPNGFCGANSGVSDRFSAAKSGTSASLAINGLRSEDEADYYCAAWDDSLNGYVFGTGTKLTVLG | 27900 |
| KB_A12_cMET_H01 (scFv, V domains shown) VH: EVQLVESGGGLVRPGGSLRLSCAASGFTFSSYAMSWVRQAPGKGLEWVSAISGSGGSTYYADSVKGRFTISRDNTKNSLYLQMTSLRADDTAFYYCVKDFGPGYGTGWFDYWGPGTLVTVSS VL: AVNWYQQLPGKAPKLLIYAAGRCHRMSGTGRCKQDSDCLAGCVCGPNGFCGANSGVSDRFSAAKSGTSASLAINGLRSEDEADYYCAAWDDSLNGYVFGTGTKLTVLG | 132000 |
| KB_A12_cMET_E01 (scFv, V domains shown) VH: EVQLVESGGGLVRPGGSLRLSCAASGFTFSSYAMSWVRQAPGKGLEWVSAISGSGGSTYYADSVKGRFTISRDNTKNSLYLQMTSLRADDTAFYYCVKDFGPGYGTGWFDYWGPGTLVTVSS VL: AVNWYQQLPGKAPKLLIYAAGRCNLTSGTGRCKQDSDCLAGCVCGPNGFCGANSGVSDRFSAAKSGTSASLAINGLRSEDEADYYCAAWDDSLNGYVFGTGTKLTVLG | 22400 |
| KB_A12_cMET_H02 (scFv, V domains shown) VH: EVQLVESGGGLVRPGGSLRLSCAASGFTFSSYAMSWVRQAPGKGLEWVSAISGSGGSTYYADSVKGRFTISRDNTKNSLYLQMTSLRADDTAFYYCVKDFGPGYGTGWFDYWGPGTLVTVSS VL: AVNWYQQLPGKAPKLLIYAAGRCAKRTGTGRCKQDSDCLAGCVCGPNGFCGANSGVSDRFSAAKSGTSASLAINGLRSEDEADYYCAAWDDSLNGYVFGTGTKLTVLG | 35400 |
| KB_A12_cMET_F02 (scFv, V domains shown) VH: EVQLVESGGGLVRPGGSLRLSCAASGFTFSSYAMSWVRQAPGKGLEWVSAISGSGGSTYYADSVKGRFTISRDNTKNSLYLQMTSLRADDTAFYYCVKDFGPGYGTGWFDYWGPGTLVTVSS VL: AVNWYQQLPGKAPKLLIYAAGRCGRASGTGRCKQDSDCLAGCVCGPNGFCGANSGVSDRFSAAKSGTSASLAINGLRSEDEADYYCAAWDDSLNGYVFGTGTKLTVLG | 98500 |
| KB_A12_cMET_E04 (scFv, V domains shown) VH: EVQLVESGGGLVRPGGSLRLSCAASGFTFSSYAMSWVRQAPGKGLEWVSAISGSGGSTYYADSVKGRFTISRDNTKNSLYLQMTSLRADDTAFYYCVKDFGPGYGTGWFDYWGPGTLVTVSS VL: AVNWYQQLPGKAPKLLIYAAGRCGHLSGTGRCKQDSDCLAGCVCGPNGFCGANSGVSDRFSAAKSGTSASLAINGLRSEDEADYYCAAWDDSLNGYVFGTGTKLTVLG | 41300 |
| KB_A12_cMET_F05 (scFv, V domains shown) VH: EVQLVESGGGLVRPGGSLRLSCAASGFTFSSYAMSWVRQAPGKGLEWVSAISGSGGSTYYADSVKGRFTISRDNTKNSLYLQMTSLRADDTAFYYCVKDFGPGYGTGWFDYWGPGTLVTVSS VL: AVNWYQQLPGKAPKLLIYAAGRCKRLMSGAGRCKQDSDCLAGCVCGPNGFCGANSGVSDRFSAAKSGTSASLAINGLRSEDEADYYCAAWDDSLNGYVFGTGTKLTVLG | 59600 |
| KB_A12_cMET_E05 (scFv, V domains shown) VH: EVQLVESGGGLVRPGGSLRLSCAASGFTFSSYAMSWVRQAPGKGLEWVSAISGSGGSTYYADSVKGRFTISRDNTKNSLYLQMTSLRADDTAFYYCVKDFGPGYGTGWFDYWGPGTLVTVSS VL: AVNWYQQLPGKAPKLLIYAAGRCDRKAGTGRCKQDSDCLAGCVCGPNGFCGANSGVSDRFSAAKSGTSASLAINGLRSEDEADYYCAAWDDSLNGYVFGTGTKLTVLG | 116000 |
| KB_A12_cMET_F06 (scFv, V domains shown) VH: EVQLVESGGGLVRPGGSLRLSCAASGFTFSSYAMSWVRQAPGKGLEWVSAISGSGGSTYYADSVKGRFTISRDNTKNSLYLQMTSLRADDTAFYYCVKDFGPGYGTGWFDYWGPGTLVTVSS VL: AVNWYQQLPGKAPKLLIYAAGRCPHQTGTGRCKQDSDCLAGCVCGPNGFCGANSGVSDRFSAAKSGTSASLAINGLRSEDEADYYCAAWDDSLNGYVFGTGTKLTVLG | 56200 |
| KB_A12_cMET_G10 (scFv, V domains shown) VH: EVQLVESGGGLVRPGGSLRLSCAASGFTFSSYAMSWVRQAPGKGLEWVSAISGSGGSTYYADSVKGRFTISRDNTKNSLYLQMTSLRADDTAFYYCVKDFGPGYGTGWFDYWGPGTLVTVSS VL: AVNWYQQLPGKAPKLLIYAAGRCEKHSGTGRCKQDSDCLAGCVCGPNGFCGANSGVSDRFSAAKSGTSASLAINGLRSEDEADYYCAAWDDSLNGYVFGTGTKLTVLG | 64800 |
| KB_A12_cMET_H03 (scFv, V domains shown) VH: EVQLVESGGGLVRPGGSLRLSCAASGFTFSSYAMSWVRQAPGKGLEWVSAISGSGGSTYYADSVKGRFTISRDNTKNSLYLQMTSLRADDTAFYYCVKDFGPGYGTGWFDYWGPGTLVTVSS VL: AVNWYQQLPGKAPKLLIYAAGRCRGMTGVGRCKQDSDCLAGCVCGPNGFCGANSGVSDRFSAAKSGTSASLAINGLRSEDEADYYCAAWDDSLNGYVFGTGTKLTVLG | 54200 |
| KB_A12_cMET_H05 (scFv, V domains shown) VH: EVQLVESGGGLVRPGGSLRLSCAASGFTFSSYAMSWVRQAPGKGLEWVSAISGSGGSTYYADSVKGRFTISRDNTKNSLYLQMTSLRADDTAFYYCVKDFGPGYGTGWFDYWGPGTLVTVSS VL: AVNWYQQLPGKAPKLLIYAAGRCNRASGAGRCKQDSDCLAGCVCGPNGFCGANSGVSDRFSAAKSGTSASLAINGLRSEDEADYYCAAWDDSLNGYVFGTGTKLTVLG | 153000 |
| KB_A12_cMET_G01 (scFv, V domains shown) VH: EVQLVESGGGLVRPGGSLRLSCAASGFTFSSYAMSWVRQAPGKGLEWVSAISGSGGSTYYADSVKGRFTISRDNTKNSLYLQMTSLRADDTAFYYCVKDFGPGYGTGWFDYWGPGTLVTVSS VL: AVNWYQQLPGKAPKLLIYAAGRCQRQSGTGRCKQDSDCLAGCVCGPNGFCGANSGVSDRFSAAKSGTSASLAINGLRSEDEADYYCAAWDDSLNGYVFGTGTKLTVLG | 98900 |
| KB_A12_cMET_E07 (scFv, V domains shown) VH: EVQLVESGGGLVRPGGSLRLSCAASGFTFSSYAMSWVRQAPGKGLEWVSAISGSGGSTYYADSVKGRFTISRDNTKNSLYLQMTSLRADDTAFYYCVKDFGPGYGTGWFDYWGPGTLVTVSS VL: AVNWYQQLPGKAPKLLIYAAGRCPKRHTGTGRCKQDSDCLAGCVCGPNGFCGANSGVSDRFSAAKSGTSASLAINGLRSEDEADYYCAAWDDSLNGYVFGTGTKLTVLG | 95300 |
| KB_A12_cMET_H04 (scFv, V domains shown) VH: EVQLVESGGGLVRPGGSLRLSCAASGFTFSSYAMSWVRQAPGKGLEWVSAISGSGGSTYYADSVKGRFTISRDNTKNSLYLQMTSLRADDTAFYYCVKDFGPGYGTGWFDYWGPGTLVTVSS VL: AVNWYQQLPGKAPKLLIYAAGRCPQMTGTGRCKQDSDCLAGCVCGPNGFCGANSGVSDRFSAAKSGTSASLAINGLRSEDEADYYCAAWDDSLNGYVFGTGTKLTVLG | 113000 |
| KB_A12_cMET_F12 (scFv, V domains shown) VH: EVQLVESGGGLVRPGGSLRLSCAASGFTFSSYAMSWVRQAPGKGLEWVSAISGSGGSTYYADSVKGRFTISRDNTKNSLYLQMTSLRADDTAFYYCVKDFGPGYGTGWFDYWGPGTLVTVSS VL: AVNWYQQLPGKAPKLLIYAAGRCKAQSGSGRCKQDSDCLAGCVCGPNGFCGANSGVSDRFSAAKSGTSASLAINGLRSEDEADYYCAAWDDSLNGYVFGTGTKLTVLG | 119000 |
| KB_A12_cMET_E12 (scFv, V domains shown) VH: EVQLVESGGGLVRPGGSLRLSCAASGFTFSSYAMSWVRQAPGKGLEWVSAISGSGGSTYYADSVKGRFTISRDNTKNSLYLQMTSLRADDTAFYYCVKDFGPGYGTGWFDYWGPGTLVTVSS VL: AVNWYQQLPGKAPKLLIYAAGRCAKRSGTGRCKQDSDCLAGCVCGPNGFCGANSGVSDRFSAAKSGTSASLAINGLRSEDEADYYCAAWDDSLNGYVFGTGTKLTVLG | 95900 |
| KB_A12_cMET_E02 (scFv, V domains shown) VH: EVQLVESGGGLVRPGGSLRLSCAASGFTFSSYAMSWVRQAPGKGLEWVSAISGSGGSTYYADSVKGRFTISRDNTKNSLYLQMTSLRADDTAFYYCVKDFGPGYGTGWFDYWGPGTLVTVSS VL: AVNWYQQLPGKAPKLLIYAAGRCRKKSGANRCKQDSDCLAGCVCGPNGFCGANSGVSDRFSAAKSGTSASLAINGLRSEDEADYYCAAWDDSLNGYVFGTGTKLTVLG | 9480 |
| KB_A12_cMET_G07 (scFv, V domains shown) VH: EVQLVESGGGLVRPGGSLRLSCAASGFTFSSYAMSWVRQAPGKGLEWVSAISGSGGSTYYADSVKGRFTISRDNTKNSLYLQMTSLRADDTAFYYCVKDFGPGYGTGWFDYWGPGTLVTVSS VL: AVNWYQQLPGKAPKLLIYAAGRCRASSGTGRCKQDSDCLAGCVCGPNGFCGANSGVSDRFSAAKSGTSASLAINGLRSEDEADYYCAAWDDSLNGYVFGTGTKLTVLG | 58000 |
| KB_A12_cMET_G06 (scFv, V domains shown) VH: EVQLVESGGGLVRPGGSLRLSCAASGFTFSSYAMSWVRQAPGKGLEWVSAISGSGGSTYYADSVKGRFTISRDNTKNSLYLQMTSLRADDTAFYYCVKDFGPGYGTGWFDYWGPGTLVTVSS VL: AVNWYQQLPGKAPKLLIYAAGRCNKSGGTGRCKQDSDCLAGCVCGPNGFCGANSGVSDRFSAAKSGTSASLAINGLRSEDEADYYCAAWDDSLNGYVFGTGTKLTVLG | 62100 |
